Source: the supplement of paper PMC9170038

Test system: K4 kissing-loop RNA reporter
Assay: apparent KD of K4 kissing-loop reporter; higher = weaker reporter binding
Settings: Eterna round: R107
Protocol: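 RNA-MaP round R107: designed RNA switches with theophylline, tryptophan, arginine or FMN aptamers are transcribed on-chip within common flanks. They are titrated with a labelled K4 kissing-loop RNA reporter in RNA-MaP buffer (100 mM Tris pH 7.5, 80 mM KCl, 4 mM MgCl2), without ligand or with the indicated ligand. Median apparent KD per design.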

[1] = input ligand: theophylline 20 uM
[2] = input ligand: tryptophan 2.4 mM
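Note: bound reporter read as fluorescence of individual clusters on recovered sequencing chips by microscopy, with normalized cluster intensities fitted with a binding model.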

Sequence	apparent KD of K4 kissing-loop reporter (input ligand: FMN 200 uM)	apparent KD of K4 kissing-loop reporter (input ligand: arginine 13.2 mM)	apparent KD of K4 kissing-loop reporter (input ligand: none)	apparent KD of K4 kissing-loop reporter [1]	apparent KD of K4 kissing-loop reporter [2]
GAACCAGAGGUUGCUGCGGGUUCCAGAGAUACCAGCCGUAUUGAAGGCCCUUGGCAGCUCGAGUGAUGUUCGAGCCGCCUCUGGC [Antius]	118 nM	96.8 nM	120 nM	103 nM	103 nM
GAAGUACAGGCGGCCGCCACUAGUGAUGUUAGUGAUAAAAGAUAAAGUAUAUAUCGGCAUGUAGAUAGGACCGGGCCUGAUGGAG [uiiumullin]	118 nM	296 nM	186 nM	203 nM	298 nM
GAGGUACAGGCGGCCGCCACUAGUGAUGUUAGUGAUAGAAGAUAUAGUAAAUAUCGGCAUGUAGAUAGGACCGGGCCUGGUGGAG [vvgtcmullin]	291 nM	234 nM	288 nM	327 nM	287 nM
GAGUGGCAGACGGCCGCCACUCUUAGCAGCCAGCGGAGUGAUGUUCCGCCCGAGUGAUGUUCGGAGAGGACCGGGUUUGUUGUAA [Exclusion Tryptophan B GF 29]	119 nM	146 nM	146 nM	149 nM	125 nM
GAUAUAGUGAUGUUAUAUACUGAUAGACAACGAGGACCGGUACGGCCGCCACUCGAGAGGGUGAAAUUAAUGAUAAAAUAAUAAU [ExyTryA#2]	322 nM	351 nM	356 nM	307 nM	270 nM
GAUUCAGUGAUGUUGGAAGGCGAGCGGGAUACCAGCCGAGACUCAGGCCCUUGGCAGCCCACAUAUCCCAGGUAGAUAGUCGAUC [Same State - Theophylline A (Freestyle 9)]	185 nM	118 nM	170 nM	165 nM	160 nM
GAUUCUGUUCGAAAGAACGGAAUCACGGAAGGAGCGAGAGAAAUCUCAGGUAGGUCGCCGAAUUUUUGAUAGUGAUGUUAUCAUU [Arginine A K4 2]	422 nM	353 nM	388 nM	408 nM	426 nM
GAUUUAGAGGCGGCCGCCACUAGUGAUGUUAGUGAUGUUUGAUACUGAAUAUAUCUGCGUUUAGAUAGGACCGGGCCAGAUGGAG [qzwqmullin]	234 nM	164 nM	181 nM	193 nM	177 nM
GCAGACACGCAGUGAUGUUGCGAAACGGAAGGAGCGCGUGAAAACGCAGGUAGGUCGCCGAAACAUAAAUUAUAAUUUUGUUUGC [Arginine A K4 13]	244 nM	194 nM	221 nM	240 nM	177 nM
GCAGUCAAUCGACCACGAAAGUGGAUGGAUACCAGAGUCGAAAGACUCCCUUGGCAGCCAGUGAUGUUGGAAGACUGCAAUAAAA [#SwitchBubble 16 #K4Late]	1120 nM	357 nM	622 nM	479 nM	468 nM
GCAGUGAUGUUGCGCAUGUACAGUGGAGUGCGAGGACCGGUACGGCCGCCACUCGUACAGAACAAGCUAAUAUAUGGAUAGGUGA [IX]	418 nM	525 nM	543 nM	510 nM	306 nM
GCAGUGAUGUUGCGGAUGUACAGUGGCGUGCGAGGACCGGUACGGCCGCCACUCGUACAGCACAAGCUAAUACAUCGAUAGGUGA [whbob_SS_Tryp_A_m2]	566 nM	287 nM	357 nM	380 nM	430 nM
GCAGUGAUGUUGCGGAUGUACAGUGGGAUACGAGGACCGGUACGGCCGCCACUCGUACAGAACAAGCUAAUACAUCGAUAGGUGA [XII]	265 nM	281 nM	339 nM	373 nM	301 nM
GCAGUGAUGUUGCUGAUGUGCAGUGGUAGUCGAGGACCGGUACGGCCGCCACUCGGUGAGAAUUUGCUAAUACAUCGAUAAGUGA [XVII]	1210 nM	614 nM	1280 nM	858 nM	904 nM
GCAUCCAUGGCAGGAUAUAGGUUCGUGGAGUGAUGUUCCAUAACCCGAGUGAUGUUCGUUAUCCACCUAGAAGGGCCAUGGAUGC [whbob_Ex_FMNB__2th211]	212 nM	204 nM	218 nM	215 nM	184 nM
GCAUGCAUGGCAGGAUAUAAUCUGGAGUGAUGUUCCUUUAACCUUUCGAACGGCGAGCCAGGUUGAUUAGAAGGGCCAUGCAUGC	435 nM	476 nM	622 nM	628 nM	530 nM
GCCAGUGAUGUUGGCAUUUCGAGCCAUGAAGGAGCGCACGGAAGUGCAGGUAGGUCGCAUGGUACUUAAGAUAUUAUCCUAAGUA [Atceis]	210 nM	162 nM	192 nM	177 nM	129 nM
GCCAUCAGGUCGCAAGACCUGAUAGCCGAUACCAGCGCGAAGGUGCGCCCUUGGCAGCGGCACCGAGUGAUGUUCGGUCAGGCGG [#2 Same State - Theophylline A Attempt #3 (HarryS)]	490 nM	490 nM	595 nM	291 nM	554 nM
GCCGUACGCAUGGAUACCAGCAACCCUGCCAUCCCAGUGAUGUUGGGAGGAACAUUCUCAUGCCCUUGGCAGCCAUGCGUACGGC	534 nM	358 nM	473 nM	384 nM	459 nM
GCCGUACGCAUGGAUACCAGUCUUAGAGUGAUGUUCUAUACGAUUGCGCCUGGAUCAAUGGACCCUUGGCAGCCAUGCGUACGGC	144 nM	112 nM	123 nM	114 nM	124 nM
GCCGUAGAUGGAAGGAGCGAGUCCAAACCAUAUUGCUGAAAAUUCGAGUGAUGUUCGUAAGCUCAGGUAGGUCGCCAUCUACGGC	206 nM	184 nM	209 nM	161 nM	187 nM
GCCGUAGAUUGAAGGAGCGGGAUAGAGAAAGUGAUGUUUUCUCUUUGACGGCGUCCUCGAUCCCAGGUAGGUCGCAAUCUACGGC	76.1 nM	75.2 nM	81.2 nM	73.5 nM	70.2 nM

Sequence	apparent KD of K4 kissing-loop reporter (input ligand: FMN 200 uM)	apparent KD of K4 kissing-loop reporter (input ligand: arginine 13.2 mM)	apparent KD of K4 kissing-loop reporter (input ligand: none)	apparent KD of K4 kissing-loop reporter [1]	apparent KD of K4 kissing-loop reporter [2]
GCCGUAGAUUGAAGGAGCGUUCUUCAGCAAACUUGCAGUGAUGUUGCAUUAAACAUGUAAGAACAGGUAGGUCGCAAUCUACGGC	145 nM	138 nM	155 nM	129 nM	121 nM
GCCUAGCAGGGAAGGAGCGCCAUAUAAUUAAAAGUUAAUUAAUGAGUGAUGUUCAAAUAAUGGCAGGUAGGUCGCCCUGCUAGGC [KL-SSArg B9]	378 nM	289 nM	329 nM	316 nM	323 nM
GCCUAGCAGGGAAGGAGCGGCAUAAGCAUAGAUAAUAUGCAGUUAGUGAUGUUAAUACUAUGCCAGGUAGGUCGCCCUGCUAGGC [KL-SSArg B7]	752 nM	457 nM	688 nM	623 nM	537 nM
GCCUAGCAGGGAAGGAGCGGCAUAGGCAUAGAUAAUAUGCAGUUAGUGAUGUUAACACUAUGCCAGGUAGGUCGCCCUGCUAGGC [KL-SSArg B8]	201 nM	95.4 nM	192 nM	120 nM	125 nM
GCCUGGGCACGAAGGAGCGCCGUGACAGGUUACUGCAUUGGGCAGUGAUGUUGCUCAAUCUGGCAGGUAGGUCGCGUGCCCAGGC	106 nM	114 nM	110 nM	120 nM	113 nM
GCCUUAUAUCCAGCUACAGCUCUUUUUGGUCGAGGACCGGUACGGCCGCCACUCGAAUGAUAGUGAUGUUAUCGUUUUGUACUAA [JR_Nu_ExcTryptoA_Sub024]	97.9 nM	112 nM	108 nM	101 nM	54.7 nM
GCCUUAUAUCGAGCUACAGCUCGAUUUGGUCGAGGACCGGUACGGCCGCCACUCGAAUGAUAGUGAUGUUAUCAUUAUGGCCUAA [JR_ExcTryptoA_Sub022]	185 nM	137 nM	183 nM	130 nM	148 nM
GCGAACAUUCGCAGUGAUGUUGCGACGGAAGGAGCGCGUGAAAACGCAGGUAGGUCGCCGACAAAAUUAAUUUUAAUGUGUUCGC [Arginine A K4 27]	373 nM	440 nM	488 nM	471 nM	315 nM
GCGGACAUUCGCAGUGAUGUUGCGACGGAAGGAGCGCGUGAAAACGCAGGUAGGUCGCCGACAAAAUUAAUUUUAAUGUGUUCGC [Arginine A K4 30]	362 nM	387 nM	394 nM	415 nM	306 nM
GCGGGCCAGACGGCCGCCACUCCGGGCAGUGAUGUUGCGAAAAUUCUACUAGAGUGAUGUUCUACGAGGACCGGGUCGGAACGCG [Exclusion Tryptophan B Gf 12]	370 nM	476 nM	538 nM	495 nM	257 nM
GCGGGCCCGGGAGGAUAUGAGUCGAGUGAUGUUCGGCGGUCCAUGCCGUUGCGGCGUUAAGCCCUUUUAGAAGGCCCGGGCCCGC [#2 Exclusion - FMN B Attempt #2 (HarryS)]	208 nM	137 nM	161 nM	138 nM	184 nM
GCUAUGGUAGGAAGGAGCGCUGCGUUGUUUUUACGAGUGAUGUUCGGAAGCGGCGUGUUAAAGCAGGUAGGUCGCCUACUAUAGC [Arginine B K4 24]	162 nM	135 nM	184 nM	172 nM	154 nM
GCUCAGGAGUGAUGUUCCAAGUGAUGUUAACGAGGACCGGUACGGCCGCCACUCGAUACGGCCGGACCGUAGGAUAAACUAGAGC [Same State - Tryptophan A (Freestyle 9)]	200 nM	171 nM	183 nM	313 nM	244 nM
GCUCGGGAGUGAUGUUCCAAGUGGUGUUAACGAGGACCGGUACGGCCGCCACUCGAUACGGCCGGGCCGUAGGAUAAACUGGAGC [Same State - Tryptophan A (Freestyle 13)]	193 nM	123 nM	154 nM	174 nM	152 nM
GGAGAGAACUGAAGGAGCGCCAAGAGAGAAGGAAAUAUAGUGAUGUUAUAUAAGAGAGAGAGGCAGGUAGGUCGCAGAGGGAGGA [#03 K4 Arginine B Exclusion]	185 nM	162 nM	127 nM	175 nM	112 nM
GGAUAGGACAGAGGAUAUCCUGAGGCAAGAAACUUGUCUCAUAAAGGAUGAAUCCUAGUGAUGUUAGGAGAAGGCUGUCCUAUCG [FmnBX 15 - #SwitchBubble #StaticStem #Palindromic]	172 nM	58.8 nM	88 nM	104 nM	71.3 nM
GGAUAGGACAGAGGAUAUGGUAGUGAUGUUACCACGAGACAAAGUCUCGAAAAGCUACAAAGUAGCCCAGAAGGCUGUCCUAUCG [FmnBX 25 #SwitchBubble #StaticStem #Palindromic]	402 nM	116 nM	130 nM	114 nM	127 nM
GGAUAGGACAUAGGAUAUGGGCUAGGCAAGAAUAACUUGUCUAGCAAAUCCAUGAGGAGUGAUGUUCCAGAAGGGUGUCCUAUCG [FmnBX 1 U11+G75]	194 nM	105 nM	99.4 nM	111 nM	89.9 nM
GGAUAGGAUAGAGGAUAUGGUAGUGAUGUUACCAAACUGGUUAAACAUGUCAGAAAACUGGCAUGACCAGAAGGUUGUCCUAUCG [FmnBX 27 U9+U75]	80.5 nM	57.1 nM	70.5 nM	66.9 nM	61.5 nM
GGAUCCACCAGUGAUGUUGGAGAAAACUCCAAGGAUAUGACGAAAGUCAGAAGGUGGUAGACUGGACAAAGUCCGGUAGGAUCCA [FmnA10 A78]	992 nM	58.5 nM	360 nM	228 nM	193 nM
GGAUUGCCAGUGAUGUUGGCAUAAUCUGAAGGAGCGCGUGAAAACGCAGGUAGGUCGCAGAACCUUGCCAACUGAUCGAAAGAUC [Ex Arginine A K4 30]	145 nM	165 nM	155 nM	185 nM	150 nM
GGCAGUGAUGUUGCCUAAGCAACGCAUGCGGAGGAUAUUCGUUCGGGAAGAAGGCCGCAGCGUUCUCUCGAGUGAUGUUCGAGUA [Same State FMN A GF 21]	161 nM	176 nM	176 nM	171 nM	166 nM
